Source: publication PMC7305997 (ACS chemical biology, 2020)
Ends that are not written are not given here.

T1: Full length human CIB1 (calcium and integrin binding protein 1), N-terminal hexahistidine tag (human, UniProt Q99828 1-191)
T1 sequence (looked up): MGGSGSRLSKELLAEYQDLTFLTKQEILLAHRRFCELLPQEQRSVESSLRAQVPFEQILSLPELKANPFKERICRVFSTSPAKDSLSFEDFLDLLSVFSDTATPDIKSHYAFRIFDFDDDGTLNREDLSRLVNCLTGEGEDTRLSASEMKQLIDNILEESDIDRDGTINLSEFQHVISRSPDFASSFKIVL

T2: biotinylated CIB1 (Homo sapiens, UniProt Q99828)
T2 sequence (Q99828 1-191): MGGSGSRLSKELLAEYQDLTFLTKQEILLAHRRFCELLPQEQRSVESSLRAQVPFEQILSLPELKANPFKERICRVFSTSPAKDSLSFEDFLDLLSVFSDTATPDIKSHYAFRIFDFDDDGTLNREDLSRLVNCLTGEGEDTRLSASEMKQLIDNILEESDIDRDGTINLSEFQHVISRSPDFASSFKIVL

T3: full length human CIB1 (Homo sapiens, UniProt Q99828)
T3 sequence (Q99828 1-191): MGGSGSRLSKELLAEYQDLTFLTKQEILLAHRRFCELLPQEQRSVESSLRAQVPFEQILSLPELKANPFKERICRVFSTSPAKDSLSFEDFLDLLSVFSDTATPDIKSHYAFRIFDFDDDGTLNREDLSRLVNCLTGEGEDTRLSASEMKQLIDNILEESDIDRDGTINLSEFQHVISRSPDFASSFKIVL


These molecules were tested against T1, Full length human CIB1 (calcium and …) (assay: ITC). Details: not given.

Row | Kd [nM] | dH [kcal/mol] | stoichiometry N | Molecule
1 | 45 | -16.1 | 1.1 | Ac-EDGGSFWYGAMKALYG [Acetyl long (Ac-EDGGSFWYGAMKALYG)]
2 | 52.1 | -14 | 1.1 | Ac-FWYGAMKALYG [Acetyl short (Ac-FWYGAMKALYG)]
3 |  | -7.7 | 1 | EDGGSFWYGGMKALYG [UNC10245092 A5G]
4 |  | -9.8 | 0.94 | EDGGSAWYGAMKALYG [UNC10245092 F1A]
5 |  | -7.1 | 1.1 | EDGGSFWYGAMKALAG [UNC10245092 Y10A]
6 |  | -8.1 | 1 | EDGGSFWYGAAKALYG [UNC10245092 M6A]
7 |  | -16.1 | 1 | EDGGSFWAGAMKALYG [UNC10245092 Y3A]
8 |  | -8.8 | 0.99 | EDGGSFWYGAMKAAYG [UNC10245092 L9A]
9 |  | -13.8 | 1 | EDGGSFWYGAMKGLYG [UNC10245092 A8G]
10 |  | -5.9 | 0.67 | EDGGSFAYGAMKALYG [UNC10245092 W2A]
11 | 29.4 | -14.4 | 1.1 | H-EDGGSFWYGAMKALYG-NH2 [UNC10245092 (NH2-EDGGSFWYGAMKALYG-amide)]

What follows are molecules tested against T2, biotinylated CIB1 (assay: biochemical). Details: not given.
Format: binding

Row | Molecule | IC50 [nM] | Kd [nM]
12 | EDGGSFWYGAMKALYG-NH2 [UNC10245092] | 46 ± 13 | 46 ± 13

What follows are molecules tested against T3, full length human CIB1 (assay: Isothermal titration calorimetry). Details: ITC, 25°C, one site binding model; replicates as for Kd.

Row | Molecule | n (binding stoichiometry) | ΔH [kcal/mol]
13 | EDGGSFWYGAMKALYG-NH2 [UNC10245092] | 1.1 ± 0.1 | -14.4 ± 2.2
